# Data: the supplement of paper PMC9112550, “Optimization of the antimicrobial peptide Bac7 by deep mutational scanning” (BMC Biology, 2022)
# Tested on: Escherichia coli TOP10
# Test: shrunken log2 fold change of peptide-encoding DNA abundance (4.5 h post-induction vs induction); higher = less antimicrobial activity (less host growth inhibition)
# Conditions: time post-induction: 4.5 h; library: site-saturation at positions 5, 18, 19, 20
# 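Note: peptides expressed intracellularly from a pBAD plasmid library in pooled LB shake-flask culture, induced with 0.3% L-arabinose, DNA abundance read by NGS, three biological replicates, DESeq2 with apeglm shrinkage.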
row,Sequence,shrunken log2 fold change
1,RRIRLRPPRLPRPRPRPRRMPRP,0.053
2,RRIRCRPPRLPRPRPRPLTQPRP,0.189
3,RRIRNRPPRLPRPRPRPTDEPRP,0.0528
4,RRIRGRPPRLPRPRPRPRSSPRP,0.128
5,RRIRKRPPRLPRPRPRPMSIPRP,-0.0141
6,RRIRFRPPRLPRPRPRPNHEPRP,-0.56
7,RRIRVRPPRLPRPRPRPCVTPRP,-0.0293
8,RRIRCRPPRLPRPRPRPCQGPRP,-0.0713
9,RRIRDRPPRLPRPRPRPVGTPRP,-0.0472
10,RRIRRRPPRLPRPRPRPNGGPRP,0.171
11,RRIRWRPPRLPRPRPRPKLEPRP,0.808
12,RRIRQRPPRLPRPRPRPMTYPRP,-0.0223
13,RRIRPRPPRLPRPRPRPQMDPRP,-0.395
14,RRIRGRPPRLPRPRPRPFKPPRP,-0.0354
15,RRIRERPPRLPRPRPRPRSQPRP,-0.341
16,RRIRSRPPRLPRPRPRPCFEPRP,-0.0192
17,RRIRMRPPRLPRPRPRPQCHPRP,0.0857
18,RRIRTRPPRLPRPRPRPTWDPRP,0.478
19,RRIRVRPPRLPRPRPRPTLEPRP,0.413
20,RRIRDRPPRLPRPRPRPRYPPRP,-0.0457
21,RRIRSRPPRLPRPRPRPADEPRP,0.246
22,RRIRCRPPRLPRPRPRPQWMPRP,-0.0314

row,Sequence,shrunken log2 fold change
1,RRIRERPPRLPRPRPRPASLPRP,0.0301
2,RRIRNRPPRLPRPRPRPYLDPRP,-0.181
3,RRIRHRPPRLPRPRPRPLHWPRP,0.0266
4,RRIRKRPPRLPRPRPRPCLWPRP,0.0613
5,RRIRWRPPRLPRPRPRPLNQPRP,-0.0739
6,RRIRYRPPRLPRPRPRPGYIPRP,-0.0964
7,RRIRGRPPRLPRPRPRPITEPRP,0.000184
8,RRIRERPPRLPRPRPRPMMIPRP,-0.251
9,RRIRVRPPRLPRPRPRPVMRPRP,0.269
10,RRIRKRPPRLPRPRPRPIKDPRP,-0.00059
11,RRIRKRPPRLPRPRPRPSMYPRP,-0.306
12,RRIRYRPPRLPRPRPRPHRAPRP,-0.213
13,RRIRFRPPRLPRPRPRPTYVPRP,-0.137
14,RRIRGRPPRLPRPRPRPAVSPRP,0.573
15,RRIRKRPPRLPRPRPRPTWPPRP,0.766
16,RRIRSRPPRLPRPRPRPDKNPRP,-0.105
17,RRIRYRPPRLPRPRPRPRHPPRP,-0.266
18,RRIRGRPPRLPRPRPRPTCSPRP,0.991
19,RRIRARPPRLPRPRPRPDHSPRP,0.0675
20,RRIRLRPPRLPRPRPRPHTSPRP,-0.112
21,RRIRVRPPRLPRPRPRPFVVPRP,-0.107
22,RRIRIRPPRLPRPRPRPALQPRP,-0.011

row,Sequence,shrunken log2 fold change
1,RRIRYRPPRLPRPRPRPLKNPRP,-0.337
2,RRIRERPPRLPRPRPRPRHKPRP,-0.0631
3,RRIRDRPPRLPRPRPRPANRPRP,-0.0377
4,RRIRGRPPRLPRPRPRPWIAPRP,-0.0596
5,RRIRERPPRLPRPRPRPTQEPRP,0.0237
6,RRIRNRPPRLPRPRPRPWGLPRP,-0.123
7,RRIRLRPPRLPRPRPRPDRPPRP,0.265
8,RRIRSRPPRLPRPRPRPADSPRP,-0.176
9,RRIRRRPPRLPRPRPRPCTQPRP,0.207
10,RRIRLRPPRLPRPRPRPMAPPRP,0.19
11,RRIRNRPPRLPRPRPRPPEAPRP,0.0101
12,RRIRYRPPRLPRPRPRPWNRPRP,-0.0135
13,RRIRPRPPRLPRPRPRPTSQPRP,0.0453
14,RRIRLRPPRLPRPRPRPIESPRP,0.033
15,RRIRVRPPRLPRPRPRPDFDPRP,0.0753
16,RRIRQRPPRLPRPRPRPCMFPRP,-0.214
17,RRIRSRPPRLPRPRPRPDMEPRP,0.0134
18,RRIRMRPPRLPRPRPRPEVGPRP,2.56
19,RRIRVRPPRLPRPRPRPPTHPRP,0.117
20,RRIRWRPPRLPRPRPRPRLNPRP,0.545
21,RRIRCRPPRLPRPRPRPASKPRP,-0.438
22,RRIRFRPPRLPRPRPRPEPKPRP,0.415

row,Sequence,shrunken log2 fold change
1,RRIRARPPRLPRPRPRPNKDPRP,-0.294
2,RRIRFRPPRLPRPRPRPVQPPRP,0.246
3,RRIRARPPRLPRPRPRPKTPPRP,0.903
4,RRIRPRPPRLPRPRPRPWMLPRP,-0.168
5,RRIRWRPPRLPRPRPRPDKFPRP,-0.427
6,RRIRDRPPRLPRPRPRPHNDPRP,-0.201
7,RRIRCRPPRLPRPRPRPKTFPRP,-0.138
8,RRIRRRPPRLPRPRPRPMRTPRP,0.911
9,RRIRHRPPRLPRPRPRPPSSPRP,-0.00863
10,RRIRDRPPRLPRPRPRPVVKPRP,0.0734
11,RRIRRRPPRLPRPRPRPSEQPRP,0.262
12,RRIRPRPPRLPRPRPRPVIWPRP,-0.0495
13,RRIRNRPPRLPRPRPRPSWAPRP,-0.249
14,RRIRLRPPRLPRPRPRPNCAPRP,0.415
15,RRIRRRPPRLPRPRPRPEYEPRP,-0.022
16,RRIRLRPPRLPRPRPRPRLPPRP,0.149
17,RRIRYRPPRLPRPRPRPFCYPRP,-0.432
18,RRIRMRPPRLPRPRPRPAGSPRP,0.2
19,RRIRKRPPRLPRPRPRPTKYPRP,-0.106
20,RRIRARPPRLPRPRPRPRWVPRP,0.267
21,RRIRFRPPRLPRPRPRPEHAPRP,0.243
22,RRIRHRPPRLPRPRPRPWGGPRP,0.39

row,Sequence,shrunken log2 fold change
1,RRIRCRPPRLPRPRPRPCGQPRP,0.143
2,RRIRSRPPRLPRPRPRPIPPPRP,-0.0431
3,RRIRIRPPRLPRPRPRPIGFPRP,0.0766
4,RRIRERPPRLPRPRPRPMWDPRP,-0.0758
5,RRIRVRPPRLPRPRPRPQEAPRP,-0.0448
6,RRIRFRPPRLPRPRPRPHNQPRP,-0.75
7,RRIRCRPPRLPRPRPRPCNAPRP,-0.448
8,RRIRSRPPRLPRPRPRPKVTPRP,-0.173
9,RRIRKRPPRLPRPRPRPAQQPRP,0.344
10,RRIRPRPPRLPRPRPRPWTQPRP,-0.0236
11,RRIRGRPPRLPRPRPRPYHLPRP,-1.27
12,RRIRFRPPRLPRPRPRPHWHPRP,-0.444
13,RRIRIRPPRLPRPRPRPYHHPRP,-0.0849
14,RRIRKRPPRLPRPRPRPPCLPRP,0.123
15,RRIRQRPPRLPRPRPRPWDPPRP,-0.327
16,RRIRPRPPRLPRPRPRPSRAPRP,0.11
17,RRIRSRPPRLPRPRPRPFYPPRP,-0.259
18,RRIRTRPPRLPRPRPRPAHLPRP,-0.000138
19,RRIRTRPPRLPRPRPRPANAPRP,-0.0933
20,RRIRCRPPRLPRPRPRPKTQPRP,0.0268
21,RRIRIRPPRLPRPRPRPTIPPRP,-0.463
